Laboratory results from the supplement of paper PMC10567573.

B1: SMG5 (parent)
chain: FVSIAQSEQESLLQQAQAQFRMAQ

Variants of: B1
Experiment: protein stability index of a GFP-peptide fusion (GPS, HEK-293T) (PSI 1-6); higher = more stable
Settings: c terminus: a fixed tail appended
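Further: lentivirally expressed fusions sorted by FACS into six bins by GFP to DsRed ratio, PSI derived from sequencing read proportions per bin multiplied by bin number.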

| Variant | protein stability index |
| --- | --- |
| FVSIAQSEQESLLQQAQPQFRMAQ | 1.98 |
| FVSIAQSEQESLLQQAQKQFRMAQ | 2.79 |
| FVSIAQSEQESLLQQAQVQFRMAQ | 1.52 |
| FVSIAQSEQESLLQQAQEQFRMAQ | 2.48 |
| FVSIAQSEQESLLQQAQRQFRMAQ | 2.54 |
| FVSIAQSEQESLLQQAQNQFRMAQ | 3.02 |
| FVSIAQSEQESLLQQAQYQFRMAQ | 2.86 |
| FVSIAQSEQESLLQQAQTQFRMAQ | 2.3 |
| FVSIAQSEQESLLQQAQQQFRMAQ | 2.04 |
| FVSIAQSEQESLLQQAQDQFRMAQ | 2.37 |
| FVSIAQSEQESLLQQAQLQFRMAQ | 2.14 |
| FVSIAQSEQESLLQQAQWQFRMAQ | 1.94 |
| FVSIAQSEQESLLQQAQFQFRMAQ | 1.74 |
| FVSIAQSEQESLLQQAQHQFRMAQ | 2.19 |
| FVSIAQSEQESLLQQAQMQFRMAQ | 1.7 |
| FVSIAQSEQESLLQQAQGQFRMAQ | 1.89 |
| FVSIAQSEQESLLQQAQSQFRMAQ | 2.74 |
| FVSIAQSEQESLLQQAQIQFRMAQ | 2.54 |
| FVSIAQSEQESLLQQAQCQFRMAQ | 1.98 |
| FVSIAQSEQESLLQVAQAQFRMAQ | 2.34 |
| FVSIAQSEQESLLQCAQAQFRMAQ | 1.85 |
| FVSIAQSEQESLLQKAQAQFRMAQ | 2.22 |
| FVSIAQSEQESLLQMAQAQFRMAQ | 2.12 |
| FVSIAQSEQESLLQHAQAQFRMAQ | 2.24 |

| Variant | protein stability index |
| --- | --- |
| FVSIAQSEQESLLQDAQAQFRMAQ | 2.55 |
| FVSIAQSEQESLLQIAQAQFRMAQ | 2.21 |
| FVSIAQSEQESLLQGAQAQFRMAQ | 2.55 |
| FVSIAQSEQESLLQFAQAQFRMAQ | 1.4 |
| FVSIAQSEQESLLQPAQAQFRMAQ | 2.28 |
| FVSIAQSEQESLLQYAQAQFRMAQ | 2.17 |
| FVSIAQSEQESLLQNAQAQFRMAQ | 2.5 |
| FVSIAQSEQESLLQRAQAQFRMAQ | 2.44 |
| FVSIAQSEQESLLQEAQAQFRMAQ | 2.32 |
| FVSIAQSEQESLLQTAQAQFRMAQ | 1.59 |
| FVSIAQSEQESLLQLAQAQFRMAQ | 1.61 |
| FVSIAQSEQESLLQWAQAQFRMAQ | 2.55 |
| FVSIAQSEQESLLQAAQAQFRMAQ | 1.44 |
| FVSIAQSEQESLLQSAQAQFRMAQ | 2.27 |
| FVSIAQSEQESLLQQAQAQFRMCQ | 2.1 |
| FVSIAQSEQESLLQQAQAQWRMAQ | 1.82 |
| FVSIAQSEQESLLQQAQAQSRMAQ | 2.57 |
| FVSIAQSEQESLLQQAQAQTRMAQ | 3.17 |
| FVSIAQSEQESLLQQAQAQLRMAQ | 2.08 |
| FVSIAQSEQESLLQQAQAQQRMAQ | 2.5 |
| FVSIAQSEQESLLQQAQAQPRMAQ | 2.75 |
| FVSIAQSEQESLLQQAQAQMRMAQ | 2.29 |
| FVSIAQSEQESLLQQAQAQYRMAQ | 2.49 |
| FVSIAQSEQESLLQQAQAQVRMAQ | 2.37 |

| Variant | protein stability index |
| --- | --- |
| FVSIAQSEQESLLQQAQAQNRMAQ | 2.5 |
| FVSIAQSEQESLLQQAQAQCRMAQ | 2.22 |
| FVSIAQSEQESLLQQAQAQDRMAQ | 3.06 |
| FVSIAQSEQESLLQQAQAQERMAQ | 3.12 |
| FVSIAQSEQESLLQQAQAQGRMAQ | 3.13 |
| FVSIAQSEQESLLQQAQAQIRMAQ | 2.48 |
| FVSIAQSEQESLLQQAQAQRRMAQ | 2.32 |
| FVSIAQSEQESLLQQAQAQHRMAQ | 3.04 |
| FVSIAQSEQESLLQQAQAQKRMAQ | 2.59 |
| FVSIAQSEQESLLQQAQAQARMAQ | 2.44 |
| FVSIAQSEQESLLQQAQAQFAMAQ | 2.27 |
| FVSIAQSEQESLLQQAQAQFPMAQ | 2.17 |
| FVSIAQSEQESLLQQAQAQFFMAQ | 1.92 |
| FVSIAQSEQESLLQQAQAQFDMAQ | 2.48 |
| FVSIAQSEQESLLQQAQAQFQMAQ | 2.6 |
| FVSIAQSEQESLLQQAQAQFIMAQ | 1.76 |
| FVSIAQSEQESLLQQAQAQFEMAQ | 2.64 |
| FVSIAQSEQESLLQQAQAQFTMAQ | 2.32 |
| FVSIAQSEQESLLQQAQAQFSMAQ | 1.82 |
| FVSIAQSEQESLLQQAQAQFVMAQ | 2.56 |
| FVSIAQSEQESLLQQAQAQFGMAQ | 2.08 |
| FVSIAQSEQESLLQQAQAQFYMAQ | 2.63 |
| FVSIAQSEQESLLQQAQAQFNMAQ | 1.94 |
| FVSIAQSEQESLLQQAQAQFHMAQ | 2.4 |

| Variant | protein stability index |
| --- | --- |
| FVSIAQSEQESLLQQAQAQFMMAQ | 1.89 |
| FVSIAQSEQESLLQQAQAQFCMAQ | 1.44 |
| FVSIAQSEQESLLQQAQAQFWMAQ | 3.6 |
| FVSIAQSEQESLLQQAQAQFLMAQ | 2.43 |
| FVSIAQSEQESLLQQAQAQFKMAQ | 2.59 |
| FVSIAQSEQESLLQQAQACFRMAQ | 1.93 |
| FVSIAQSEQESLLQQAQALFRMAQ | 2.47 |
| FVSIAQSEQESLLQQAQAYFRMAQ | 1.08 |
| FVSIAQSEQESLLQQAQAHFRMAQ | 1.66 |
| FVSIAQSEQESLLQQAQADFRMAQ | 2.27 |
| FVSIAQSEQESLLQQAQAVFRMAQ | 2.13 |
| FVSIAQSEQESLLQQAQAGFRMAQ | 2.08 |
| FVSIAQSEQESLLQQAQAFFRMAQ | 1.35 |
| FVSIAQSEQESLLQQAQAMFRMAQ | 2.09 |
| FVSIAQSEQESLLQQAQANFRMAQ | 1.97 |
| FVSIAQSEQESLLQQAQASFRMAQ | 1.81 |
| FVSIAQSEQESLLQQAQARFRMAQ | 3.17 |
| FVSIAQSEQESLLQQAQAKFRMAQ | 1.96 |
| FVSIAQSEQESLLQQAQATFRMAQ | 1.98 |
| FVSIAQSEQESLLQQAQAPFRMAQ | 1.81 |
| FVSIAQSEQESLLQQAQAIFRMAQ | 2.33 |
| FVSIAQSEQESLLQQAQAEFRMAQ | 2.82 |
| FVSIAQSEQESLLQQAQAAFRMAQ | 1.87 |
| FVSIAQSEQESLLQQAQAQFRVAQ | 2.61 |

| Variant | protein stability index |
| --- | --- |
| FVSIAQSEQESLLQQAQAQFRNAQ | 1.94 |
| FVSIAQSEQESLLQQAQAQFRSAQ | 2.92 |
| FVSIAQSEQESLLQQAQAQFRDAQ | 2.68 |
| FVSIAQSEQESLLQQAQAQFRKAQ | 2.13 |
| FVSIAQSEQESLLQQAQAQFRIAQ | 2.14 |
| FVSIAQSEQESLLQQAQAQFRPAQ | 2.25 |
| FVSIAQSEQESLLQQAQAQFRFAQ | 2.2 |
| FVSIAQSEQESLLQQAQAQFRLAQ | 2.01 |
| FVSIAQSEQESLLQQAQAQFRQAQ | 2.05 |
| FVSIAQSEQESLLQQAQAQFRYAQ | 2.13 |
| FVSIAQSEQESLLQQAQAQFRCAQ | 3.04 |
| FVSIAQSEQESLLQQAQAQFRRAQ | 2.7 |
| FVSIAQSEQESLLQQAQAQFRHAQ | 2.26 |
| FVSIAQSEQESLLQQAQAQFREAQ | 2.57 |
| FVSIAQSEQESLLQQAQAQFRGAQ | 2.3 |
| FVSIAQSEQESLLQQAQAQFRAAQ | 2.43 |
| FVSIAQSEQESLLQQAQAQFRWAQ | 2.4 |
| FVSIAQSEQESLLQQAQAQFRTAQ | 2.5 |
| FVSIAQSEQESLLQQHQAQFRMAQ | 2.56 |
| FVSIAQSEQESLLQQYQAQFRMAQ | 1.86 |
| FVSIAQSEQESLLQQEQAQFRMAQ | 2.43 |
| FVSIAQSEQESLLQQLQAQFRMAQ | 1.73 |
| FVSIAQSEQESLLQQKQAQFRMAQ | 1.68 |
| FVSIAQSEQESLLQQMQAQFRMAQ | 2.2 |

| Variant | protein stability index |
| --- | --- |
| FVSIAQSEQESLLQQFQAQFRMAQ | 2.47 |
| FVSIAQSEQESLLQQGQAQFRMAQ | 2.09 |
| FVSIAQSEQESLLQQIQAQFRMAQ | 2.16 |
| FVSIAQSEQESLLQQQQAQFRMAQ | 2.55 |
| FVSIAQSEQESLLQQTQAQFRMAQ | 2.69 |
| FVSIAQSEQESLLQQRQAQFRMAQ | 2.53 |
| FVSIAQSEQESLLQQSQAQFRMAQ | 1.94 |
| FVSIAQSEQESLLQQVQAQFRMAQ | 1.78 |
| FVSIAQSEQESLLQQDQAQFRMAQ | 2.44 |
| FVSIAQSEQESLLQQCQAQFRMAQ | 1.36 |
| FVSIAQSEQESLLQQWQAQFRMAQ | 1.94 |
| FVSIAQSEQESLLQQNQAQFRMAQ | 2.37 |
| FVSIAQSEQESLLQQPQAQFRMAQ | 1.88 |
| FVSIAQSEQESLLAQAQAQFRMAQ | 2.11 |
| FVSIAQSEQESLLLQAQAQFRMAQ | 2.4 |
| FVSIAQSEQESLLNQAQAQFRMAQ | 2.59 |
| FVSIAQSEQESLLCQAQAQFRMAQ | 1.79 |
| FVSIAQSEQESLLDQAQAQFRMAQ | 2.4 |
| FVSIAQSEQESLLIQAQAQFRMAQ | 2.25 |
| FVSIAQSEQESLLWQAQAQFRMAQ | 2.52 |
| FVSIAQSEQESLLHQAQAQFRMAQ | 2.4 |
| FVSIAQSEQESLLSQAQAQFRMAQ | 2.54 |
| FVSIAQSEQESLLRQAQAQFRMAQ | 2.21 |
| FVSIAQSEQESLLTQAQAQFRMAQ | 2.09 |

| Variant | protein stability index |
| --- | --- |
| FVSIAQSEQESLLGQAQAQFRMAQ | 2.77 |
| FVSIAQSEQESLLVQAQAQFRMAQ | 1.64 |
| FVSIAQSEQESLLKQAQAQFRMAQ | 2.79 |
| FVSIAQSEQESLLFQAQAQFRMAQ | 1.84 |
| FVSIAQSEQESLLPQAQAQFRMAQ | 2.17 |
| FVSIAQSEQESLLYQAQAQFRMAQ | 1.7 |
| FVSIAQSEQESLLMQAQAQFRMAQ | 2.18 |
| FVSIAQSEQESLLEQAQAQFRMAQ | 2.88 |
| FVSIAQSEQESLLQQAPAQFRMAQ | 3.35 |
| FVSIAQSEQESLLQQAGAQFRMAQ | 2.17 |
| FVSIAQSEQESLLQQAVAQFRMAQ | 2.03 |
| FVSIAQSEQESLLQQATAQFRMAQ | 1.73 |
| FVSIAQSEQESLLQQAHAQFRMAQ | 1.91 |
| FVSIAQSEQESLLQQACAQFRMAQ | 1.76 |
| FVSIAQSEQESLLQQAMAQFRMAQ | 2.13 |
| FVSIAQSEQESLLQQAIAQFRMAQ | 2.02 |
| FVSIAQSEQESLLQQAKAQFRMAQ | 2.33 |
| FVSIAQSEQESLLQQAWAQFRMAQ | 1.39 |
| FVSIAQSEQESLLQQAFAQFRMAQ | 1.85 |
| FVSIAQSEQESLLQQALAQFRMAQ | 2.04 |
| FVSIAQSEQESLLQQARAQFRMAQ | 3.07 |
| FVSIAQSEQESLLQQADAQFRMAQ | 2.37 |
| FVSIAQSEQESLLQQAYAQFRMAQ | 1.8 |
| FVSIAQSEQESLLQQASAQFRMAQ | 2.48 |

| Variant | protein stability index |
| --- | --- |
| FVSIAQSEQESLLQQAEAQFRMAQ | 2.22 |
| FVSIAQSEQESLLQQANAQFRMAQ | 2.33 |
| FVSIAQSEQESLLQQAAAQFRMAQ | 1.95 |
| FVSIAQSEQESLTQQAQAQFRMAQ | 2.28 |
| FVSIAQSEQESLRQQAQAQFRMAQ | 2.07 |
| FVSIAQSEQESLKQQAQAQFRMAQ | 2.52 |
| FVSIAQSEQESLDQQAQAQFRMAQ | 3 |
| FVSIAQSEQESLMQQAQAQFRMAQ | 2.66 |
| FVSIAQSEQESLWQQAQAQFRMAQ | 2.19 |
| FVSIAQSEQESLYQQAQAQFRMAQ | 1.31 |
| FVSIAQSEQESLQQQAQAQFRMAQ | 2.6 |
| FVSIAQSEQESLHQQAQAQFRMAQ | 3.08 |
| FVSIAQSEQESLVQQAQAQFRMAQ | 2.68 |
| FVSIAQSEQESLNQQAQAQFRMAQ | 2.74 |
| FVSIAQSEQESLSQQAQAQFRMAQ | 2.74 |
| FVSIAQSEQESLPQQAQAQFRMAQ | 3.08 |
| FVSIAQSEQESLCQQAQAQFRMAQ | 2.88 |
| FVSIAQSEQESLIQQAQAQFRMAQ | 2.87 |
| FVSIAQSEQESLEQQAQAQFRMAQ | 2.13 |
| FVSIAQSEQESLFQQAQAQFRMAQ | 1.5 |
